Laboratory results published in FireProtDB (doi:10.1016/j.bpc.2006.12.004).
“And” between values parts separate entries of the source, which are not always exact repeats. Equal entries are not always repeated.

Conditions: pH 8.4, Thermal, Capillary electrophoresis, whole UniProt chain shown; for unfolding free energy: 25 °C
[1] = Aspergillus oryzae (strain ATCC 42149 / RIB 40), Tris Gly 25 mM 192 mM, NaCl 30 mM
[2] = Aspergillus oryzae (strain ATCC 42149 / RIB 40), Tris Gly fructose 25 mM 192 mM 0.57 M, NaCl 30 mM
[3] = Aspergillus oryzae (strain ATCC 42149 / RIB 40), Tris Gly fructose 25 mM 192 mM 1.21 M, NaCl 30 mM
[4] = Aspergillus oryzae (strain ATCC 42149 / RIB 40), Tris Gly fructose 25 mM 192 mM 1.52 M, NaCl 30 mM
[5] = Aspergillus oryzae (strain ATCC 42149 / RIB 40), Tris Gly sucrose 25 mM 192 mM 0.15 M, NaCl 30 mM
[6] = Aspergillus oryzae (strain ATCC 42149 / RIB 40), Tris Gly sucrose 25 mM 192 mM 0.31 M, NaCl 30 mM
[7] = Aspergillus oryzae (strain ATCC 42149 / RIB 40), Tris Gly sucrose 25 mM 192 mM 0.47 M, NaCl 30 mM
[8] = Aspergillus oryzae (strain ATCC 42149 / RIB 40), Tris Gly sucrose 25 mM 192 mM 0.63 M, NaCl 30 mM
[9] = Aspergillus oryzae (strain ATCC 42149 / RIB 40), Tris Gly sucrose 25 mM 192 mM 0.80 M, NaCl 30 mM
[10] = Bos taurus, Tris Gly 25 mM 192 mM, NaCl 25 mM
[11] = Bos taurus, Tris Gly fructose 25 mM 192 mM 1.21 M, NaCl 25 mM
[12] = Bos taurus, Tris Gly sucrose 25 mM 192 mM 0.15 M, NaCl 25 mM
[13] = Bos taurus, Tris Gly sucrose 25 mM 192 mM 0.31 M, NaCl 25 mM
[14] = Bos taurus, Tris Gly sucrose 25 mM 192 mM 0.47 M, NaCl 25 mM
[15] = Bos taurus, Tris Gly sucrose 25 mM 192 mM 0.63 M, NaCl 25 mM
[16] = Bos taurus, Tris Gly sucrose 25 mM 192 mM 0.96 M, NaCl 25 mM

B1: Guanyl-specific ribonuclease T1 wild type, P00651 (protein)
chain: MMYSKLLTLTTLLLPTALALPSLVERACDYTCGSNCYSSSDVSTAQAAGYQLHEDGETVGSNSYPHKYNNYEGFDFSVSSPYYEWPILSSGDVYSGGSPGADRVVFNENNQLAGVITHTGASGNNFVECT
Q: Which unfolding free energy [1] does the source give for B1 here?
A: 8.2 kcal/mol

Q: And the unfolding free energy (Aspergillus oryzae (strain ATCC 42149 / RIB 40), Tris Gly fructose 25 mM 192 mM 0.29 M, NaCl 30 mM)?
A: 9.1 kcal/mol

Q: What about the unfolding free energy [2] of the same protein?
A: 9.5 kcal/mol

Q: And the unfolding free energy [3]?
A: 10.5 kcal/mol

Q: And the unfolding free energy [4]?
A: 11.2 kcal/mol

Q: And the unfolding free energy [5]?
A: 9.1 kcal/mol

Q: And the unfolding free energy [6]?
A: 9.5 kcal/mol

Q: What about the unfolding free energy [7] of the same protein?
A: 10.2 kcal/mol

Q: What about the unfolding free energy [8] of the same protein?
A: 10.6 kcal/mol

Q: And the unfolding free energy [9]?
A: 11.1 kcal/mol

Q: What about the Tm [1] of the same protein?
A: 62.6 °C and 62.5 °C

Q: What about the “heat capacity change of unfolding” value [1] of the same protein?
A: 1.3 kcal/mol/K

Q: What about the “unfolding enthalpy (van 't Hoff)” value [1] of the same protein?
A: 98 kcal/mol

Q: What about the Tm [2] of the same protein?
A: 64.5 °C

Q: What about the Tm (Aspergillus oryzae (strain ATCC 42149 / RIB 40), Tris Gly fructose 25 mM 192 mM 0.89 M, NaCl 30 mM) of the same protein?
A: 66 °C

Q: What about the Tm [3] of the same protein?
A: 66.5 °C

Q: And the Tm [4]?
A: 68 °C

Q: What about the Tm [5] of the same protein?
A: 63.6 °C

Q: And the Tm [6]?
A: 64.7 °C

Q: And the Tm [7]?
A: 65.9 °C

Q: And the Tm [8]?
A: 66.5 °C

Q: What about the Tm [9] of the same protein?
A: 67.1 °C

B2: Alpha-lactalbumin wild type, P00711 (protein)
chain: MMSFVSLLLVGILFHATQAEQLTKCEVFRELKDLKGYGGVSLPEWVCTTFHTSGYDTQAIVQNNDSTEYGLFQINNKIWCKDDQNPHSSNICNISCDKFLDDDLTDDIMCVKKILDKVGINYWLAHKALCSEKLDQWLCEKL
Q: What does the source list for B2?
A: unfolding free energy [10]: 3.3 kcal/mol; unfolding free energy (Bos taurus, Tris Gly fructose 25 mM 192 mM 0.57 M, NaCl 25 mM): 4.5 kcal/mol; unfolding free energy [11]: 5.6 kcal/mol; unfolding free energy [12]: 3.8 kcal/mol; unfolding free energy [13]: 4.6 kcal/mol; unfolding free energy [14]: 5.3 kcal/mol; unfolding free energy [15]: 5.7 kcal/mol; unfolding free energy [16]: 7 kcal/mol; Tm [10]: 56.1 °C and 56 °C; heat capacity change of unfolding [10]: 2.1 kcal/mol/K; unfolding enthalpy (van 't Hoff) [10]: 69 kcal/mol; Tm [11]: 61.6 °C; Tm (Bos taurus, Tris Gly fructose 25 mM 192 mM 1.83 M, NaCl 25 mM): 63.2 °C; Tm [12]: 56.3 °C; Tm [13]: 57.5 °C; Tm [14]: 59 °C; Tm [15]: 60.5 °C; Tm [16]: 62.4 °C
